In publication PMC3302947 (Biochemistry, 2012):

Molecular target: the molecule itself
Test: AUC

Protein	binding result
MBP-Vif(101–176)_(PPGP) (domain or fragment) not shown	binds
MBP-Vif(101–176) V166S (domain or fragment) not shown	binds
MBP-Vif(101–176)_(AALA) (domain or fragment) ELADQLIHLYYFDCFSDSAIRKALLGHIVSPRCEYQAGHNKVGSLQYLALAALITPKKIKAALASVTKLTEDRWNK	binds
MBP-Vif(101–176)_(PPPP) (domain or fragment) not shown	binds

Molecular target: the molecule itself
Test: AUC
Remark: another data set of the same source

Protein	percent monomer at 10 μM [%]
MBP-Vif(101–165) (domain or fragment) ELADQLIHLYYFDCFSDSAIRKALLGHIVSPRCEYQAGHNKVGSLQYLALAALITPKKIKPPLPS	< 30
MBP-Vif(101–160) (domain or fragment) ELADQLIHLYYFDCFSDSAIRKALLGHIVSPRCEYQAGHNKVGSLQYLALAALITPKKIK	< 30
MBP-Vif(101–172) (domain or fragment) ELADQLIHLYYFDCFSDSAIRKALLGHIVSPRCEYQAGHNKVGSLQYLALAALITPKKIKPPLPSVTKLTED	< 30
MBP-Vif(101–192) (domain or fragment) ELADQLIHLYYFDCFSDSAIRKALLGHIVSPRCEYQAGHNKVGSLQYLALAALITPKKIKPPLPSVTKLTEDRWNKPQKTKGHRGSHTMNGH	< 30
MBP-Vif(101–176) (domain or fragment) not shown	< 30

Molecular target: the molecule itself
Test: AUC
Remark: another data set of the same source

Protein	stoichiometry N
ITPKKIKPPLPSVTKLTEDRWNK (domain or fragment) [MBP-Vif(154–176)]	2
